Source: patent US7648964B2, “Use of lacritin in promoting ocular cell survival” (University of Virginia Patent Foundation, priority 2004, dated 2010)

Experiments:
Assay type in all cases: cell-based, human
[1] = tested on: FAS/APO-1; assay: Antibody array screen, salivary ductal cells; conditions: lacritin 10 ng/ml, 1 minute; tyrosine phosphorylation as gauge
Description: (§1) Lacritin's function in cell survival was first assessed in an antibody array screen. Serum-free cultures of salivary ductal cells were treated either with recombinant lacritin at 10 ng/ml or an equal volume of 1×PBS (dialysis medium for recombinant lacritin) for 1 minute.

[2] = tested on: bcl-2; assay: Antibody array screen, salivary ductal cells; conditions: lacritin 10 ng/ml, 1 minute; tyrosine phosphorylation as gauge
Description: as §1

[3] = tested on: p42 and p44 MAPK (MAPK1 and MAPK3); assay: p42/p44 MAPK activation blot in HSG cells
Description: For phosphotyrosine blotting and mitogenesis assays, cells in serum-containing media were seeded overnight in 24-well plates at a density of 0.5×10^5 cells/mm^2 corresponding to 20-30% confluency after cell attachment, incubated in serum-free media without supplements for 24 h (phosphotyrosine) or washed with serum-free media without supplements three times (mitogenesis) and incubated with lacritin (1-1000 nM), or positive controls EGF (1.6 nM) and 10% fetal bovine serum, or negative controls bovine serum albumin or no additive in serum-free media without supplements for the indicated times (phosphotyrosine) or 30 h (mitogenesis). […] After washing, bound antibodies were detected with peroxidase-labeled secondary antibody and ECL. […] Incorporation was stopped with ice-cold phosphate buffered saline and followed by addition of cold and then room temperature trichloracetic acid (10%) for 10 min each, washing of cells with phosphate buffered saline, solubilization with 1 N sodium hydroxide, neutralization with 1 N hydrochloric acid, addition of scintillation fluid and then quantitation in a scintillation counter. […] Seventy-two hours post-transfection, mitogenesis was assessed by co-addition of 10 […] lacritin and [^3H]-thymidine (2 mCi/ml) (Amersham, Piscataway N.J.) for 24 hrs. […]

B1: lacritin: recombinant human lacritin from E. coli; mature 119 residue fragment (SEQ ID NO:10) of native lacritin SEQ ID NO:4 (protein, listed as Homo sapiens)
chain: EDASSDSTGADPAQEAGTSKPNEEISGPAEPASPPETTTTAQETSAAAVQGTAKVTSSRQELNPLKSIVEKSILLTEQALAKAGKGMHGGVPGGKQFIENGSEFAQKLLKKFSLLKPWA
- change in FAS/APO-1 levels [1]: −81%
- increase in bcl-2 tyrosine phosphorylation [2]: 11%
- activation of p42 and p44 MAPK [3]: no activation
